Where a chain is given by its changes, count along the chain named. Blank lines part the entries; values can stand above or below the molecule they belong to.
Tests used:
Experiment in all cases: flow cytometry, alanine-scan library in HEK-293T
[1] = target: T1, hsGLUT4 F307A (human, UniProt P14672 1-509)
T1 sequence: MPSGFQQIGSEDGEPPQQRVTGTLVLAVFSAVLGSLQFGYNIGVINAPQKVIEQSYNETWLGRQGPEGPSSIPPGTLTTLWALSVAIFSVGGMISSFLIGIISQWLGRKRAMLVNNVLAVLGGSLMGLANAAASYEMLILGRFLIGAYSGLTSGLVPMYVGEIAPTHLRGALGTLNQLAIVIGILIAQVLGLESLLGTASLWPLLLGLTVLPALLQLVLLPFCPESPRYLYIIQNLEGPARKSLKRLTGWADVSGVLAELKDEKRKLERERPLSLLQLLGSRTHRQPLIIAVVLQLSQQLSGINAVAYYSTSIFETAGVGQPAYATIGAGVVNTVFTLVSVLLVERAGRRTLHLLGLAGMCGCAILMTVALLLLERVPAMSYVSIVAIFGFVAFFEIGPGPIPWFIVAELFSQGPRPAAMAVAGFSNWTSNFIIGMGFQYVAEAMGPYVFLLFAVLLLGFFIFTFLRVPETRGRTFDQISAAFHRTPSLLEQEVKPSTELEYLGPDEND
Summary of the method: (§1)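 HEK-293T cells expressing individual GLUT4 alanine mutants were stained 48 h post-transfection with anti-GLUT4 scFv MAbs (2 μg/ml), then biotinylated secondary and streptavidin-PerCP, and read by high-throughput flow cytometry. Where used, cytochalasin B (10 uM final) was given for 30 min before and during primary antibody staining.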

[2] = target: T2, hsGLUT4 G446A (human, UniProt P14672 1-509)
T2 sequence: T1 sequence with A307F, G446A
Summary of the method: as §1

[3] = target: T3, hsGLUT4 G504A (human, UniProt P14672 1-509)
T3 sequence: T1 sequence with A307F, G504A
Summary of the method: as §1

[4] = target: T4, hsGLUT4 N304A (human, UniProt P14672 1-509)
T4 sequence: T1 sequence with N304A, A307F
Summary of the method: as §1

B1: AB108 (Fc fusion)
scFv: ALTQPSSVSANLGGTVKITCSGSSGSYGWYQQKAPGSAPVTLIYRNDKRPSDIPSRFSGSESGSTGTLTITGVQAEDEAVYFCGGYDSSAGYAAFGAGTTLTVLGQSSRSSGGGGSSGGGGSAVTLDESGGGLQTPGGALSLVCKASGFTFSSHGMGWVRQAPGKGLEWVGSISTGRYTFYAPAVKGRATISRDNGQSTLRLQLNNLRAEDTGTYYCTKCAGLNGCGGGEIDAWGHGTEVIVSS
notes: Bivalent scFv-Fc; also called MAb AB108; not shown: Fc fragment of human IgG1, cloned in frame with the scFv
- % of binding to wild type GLUT4 [1]: 74%
- % of binding to wild type GLUT4 [2]: 86%
- % of binding to wild type GLUT4 [3]: 141%
- % of binding to wild type GLUT4 [4]: 72%

B2: AB101 (scFv)
scFv: ALTQPSSVSANPGETVKITCSGSSNSYGWYQQKSPGSAPVTVIYYNDKRPSDIPSRFSGSKSDSTHTLTITGVRAEDEAVYFCGSYDSTYVGIFGAGTTLTVLGQSSRSSGGGGSSGGGGSAVTLDESGGGLQTPGGTLSLVCKASGFTFSSNAMGWVRQAPGKGLEWVAGISSDGRYTKYGSAVKGRATISRDNGQSTVRLQLNNLRAEDTGTYFCAKAFGNNYRRIYAGQIDAWGHGTEVIVSS
notes: Chicken-derived clone used as a control; the four lead clones were tested as scFv-human IgG1 Fc; also called MAb AB101
- % of binding to wild type GLUT4 [1]: 82%
- % of binding to wild type GLUT4 [2]: 95%
- % of binding to wild type GLUT4 [3]: 8%
- % of binding to wild type GLUT4 [4]: 145%

B4: AB111 (Fc fusion)
scFv: ALTQPSSVSANPGETVKITCSGSGSWYGWFQQKSPGSAPVTVIYSNDKRPSDIPSRFSGSKSGSTSTLTITGVQVEDEAVYYCGNWDIFGAGTTLTVLGQSSRSSGGGGSSGGGGSAVTLDESGGGLQTPGGALSLVCKASGFTFSSHGMGWVRQAPGKGLEWVASISTGRYTFYAPAVKGRATISRDNGQSTVRLQLNNLRAEDTATYYCTKCAGLNGCGGGEIDAWGHGTEVIVSS
notes: Bivalent scFv-Fc; also called MAb AB111; not shown: Fc fragment of human IgG1, cloned in frame with the scFv
- % of binding to wild type GLUT4 [1]: 108%
- % of binding to wild type GLUT4 [2]: 71%
- % of binding to wild type GLUT4 [3]: 172%
- % of binding to wild type GLUT4 [4]: 125%

Next, values leading:

- % of binding to wild type GLUT4 [1]: 84%
- % of binding to wild type GLUT4 [2]: 108%
- % of binding to wild type GLUT4 [3]: 120%
- % of binding to wild type GLUT4 [4]: 79%
Molecule: 1F8 (antibody)

- % of binding to wild type GLUT4 [4]: 11%
B3: AB105 (Fc fusion)
scFv: ALTQPSSVSANPGETVEITCSGDSSYYGWYQQKSPGSAPVTVIYANTNRPSDIPSRFSGSASGSTATLTITGVQAEDEAVYYCGSADSTYAGIFGAGTTLTVLGQSSRSSGGGGSSGGGGSAVTLDESGGGLQTPGGALSLICKASGFTFSSYTMNWVRQAPGKGLEWVGVISNSGRTTNYGAAVQGRATISRDNGQSTVRLQLNNLRAEDTGTYYCAKSSASASCAWWAGRSYPCSANRIDAWGHGTEVIVSS
notes: Bivalent scFv-Fc; also called MAb AB105; not shown: Fc fragment of human IgG1, cloned in frame with the scFv
